B1: rh Bri2 BRICHOS-AU1: Rh Bri2 BRICHOS domain, residues 113-231 of Bri2, linked to an AU1 tag at the C-terminal end (SEQ ID NO: 11) (protein, listed as Homo sapiens)
chain: GSQTIEENIKIFEEEEVEFISVPVPEFADSDPANIVHDFNKKLTAYLDLNLDKCYVIPLNTSIVMPPRNLLELLINIKAGTYLPQSYLIHEHMVITDRIENIDHLGFFIYRLCHDKETYKLDTYRYI
modifications: DOMAIN 3..121 Rh Bri2 BRICHOS domain; DOMAIN 122..127 AU1 tag
B2: Bri2 BRICHOS monomers: recombinant human Bri2 BRICHOS (113-231) wild-type, monomeric species (SEQ ID NO: 2) (protein, listed as Homo sapiens)
chain: QTIEENIKIFEEEEVEFISVPVPEFADSDPANIVHDFNKKLTAYLDLNLDKCYVIPLNTSIVMPPRNLLELLINIKAGTYLPQSYLIHEHMVITDRIENIDHLGFFIYRLCHDKETYKL
B3: NT-Bri2 BRICHOS: rh fusion protein: NT* solubility tag followed by human Bri2 residues 113-231 (protein, UniProt Q9Y287 113-231, looked up, fragment)
chain: B2 chain
modifications: NT* spider silk solubility tag
B4: Bri2 BRICHOS crude: recombinant human Bri2 BRICHOS (113-231) wild-type, crude solution (protein, UniProt Q9Y287 113-231, looked up, fragment)
chain: B2 chain
B5: Bri2 BRICHOS oligomers: recombinant human Bri2 BRICHOS (113-231) wild-type, oligomeric species (protein, UniProt Q9Y287 113-231, looked up, fragment)
chain: B2 chain
modifications: oligomers
notes: recombinant human Bri2 BRICHOS (113-231) wild-type, oligomeric species

Legend:
[1] = tested on: wild type mice; details: mouse, in vivo, iv, 10 mg/kg
Experimental: Two different types of commercially available microbubbles, either Definity® (Lantheus Medical Imaging, MA, USA) or SonoVue® (Bracco, Milan, Italy) were administered at a dose of 5 μl/g body weight. For one part of the study (FIG. 3A), a total of […] mice were divided into four groups that received, respectively, i.v. injections of microbubbles and PBS (n=4), microbubbles and 1 (n=4), 10 (n=6) or 20 (n=4) mg/kg body weight of rh Bri2 BRICHOS-AU1 (SEQ ID NO: 11). In the second part of the study (FIG. 3B), a total of 3 mice were administered 20 mg/kg rh Bri2 BRICHOS-mCherry (SEQ ID NO: 12) (n=1) or microbubbles+20 mg/kg rh Bri2 BRICHOS-mCherry (n=2) intravenously. […]
96-well plates (Nunc MicroWell™) were coated with anti Bri2 BRICHOS capture antibody diluted in coating buffer (50 mM carbonate pH 9.6) and incubated overnight at 4° C. […] The reaction was stopped by adding stop solution for TMB substrates (Thermo Fisher) and absorbance was measured at 450 nm, using the values for brain homogenates from the non-treated mouse as blank. […]
Calculation of concentrations and total amounts of rh Bri2 BRICHOS-AU1 in each brain hemisphere was assessed by assuming a brain density of […], an average brain hemisphere weight of 225 mg and average of total protein in brain hemisphere homogenates of 25.6 mg.

[2] = tested on: hCMEC/D3 cells
Experimental: hCMEC/D3 cells (MilliporeSigma, Burlington, Mass.) were cultivated in EndoGRO-MV Complete Media (MilliporeSigma, Burlington, Mass.), supplemented with 1 ng/ml recombinant human fibroblast growth factor basic (FGF-2, Gibco, Invitrogen, Waltham, Mass.) and penicillin-streptomycin (100 IU/ml, 100 μg/ml, Gibco, Thermo Fisher Scientific, Waltham, Mass.) in T75 tissue culture flasks (TC-coated, DeltaLab, Spain) coated with 5-10 μg/cm^2 rat tail collagen type I (MilliporeSigma, Burlington, Mass.).
(§1) Cell viability was assessed by tetrazolium-based Thiazolyl Blue Tetrazolium Bromide (MTT) assay. For the MTT assay, 50 000 cells/cm^2 were seeded onto clear 96-well plates (TC, Cellstar, Greiner Bio-One, Austria) and grown until confluent, after which the cells were treated with the rh BRICHOS domains in 8 replicates for 24 h in a humidified atmosphere (5% CO2/95% air) at 37° C. Treated cells were incubated with 0.5 mg/ml MTT (Sigma-Aldrich, St. Louis, Mo.) solution in FBS-free cell media for 4 h in a humidified atmosphere (5% CO^2/95% air) at 37° C. The MTT solution was removed and the formazan crystals were dissolved in Dimethyl sulfoxide (DMSO, Sigma-Aldrich, St. Louis, Mo.) and incubated with shaking for 15 min. Absorbance was measured at 570 nm using a FLUOstar OPTIMA microplate reader (BMG Lab Tech, Germany). Untreated cells were used as positive control, and media without cells was used as a negative control. Also 2 μM Staurosporine from Streptomyces sp. (SP, Sigma-Aldrich, St. Louis, Mo.) was used as a negative control.

[3] = tested on: SH-SY5Y cells
Experimental: Human neuroblastoma (SH-SY5Y) cell line (ATCC, Manassas, Va.) was grown in Dulbecco's Modified Eagle's Medium (DMEM, PAN-Biotech, Germany) with 4.5 g/L glucose, glutamine (2 mM) and 3.7 g/L NaHCO3, supplemented with 10% Fetal Bovine Serum (FBS, Sera Plus, PAN-Biotech, Germany) and penicillin-streptomycin (100 IU/ml, 100 μg/ml) in TC-coated T75 tissue culture flasks.
as §1

[4] = tested on: hCMEC/D3 cells; assay: Cell uptake by western blot, hCMEC/D3; assay type: cell-based, human; details: hCMEC/D3, 2 h and 24 h, western blot of cell lysate
Experimental: Once confluent, the hCMEC/D3 cells were treated with 1 μM rh Bri2 BRICHOS monomers, oligomers or proSP-C monomers for 2 h and 24 h. […] Untreated cells were used as control. After the treatment, the cells were lysed as described for the HEK-293 cells.

[5] = tested on: SH-SY5Y cells; assay: Cell uptake by western blot, SH-SY5Y; assay type: cell-based, human; details: 24 h incubation, western blot band intensities of cell lysate
[6] = tested on: hCMEC/D3 monolayer
Experimental: For the preparation of the hCMEC/D3 cell monolayers, transwell ethylene terephthalate (PET) membrane inserts (24-well, clear, pore size 0.4 μm, CellQART, SABEU GmbH & Co. KG, Germany) were coated with rat tail type I collagen (150 μg/ml in 1× Dulbecco's Phosphate-buffered saline pH 7.4, 1×DPBS, Gibco, Thermo Fisher Scientific, Waltham, Mass.) for 2 h at 37° C. […] Media was changed every second day and the cell monolayer was established by day 6.
Experiments were conducted on culture day 6 by adding different BRICHOS protein constructs, or relevant controls to the apical side of the hCMEC/D3 monolayer. […] After the incubation, medium on the apical and basolateral sides of the monolayer was removed and analyzed by Western blotting and the band intensities measured by ImageJ. […] For mCherry and mCherry-Bri2 BRICHOS monomers, fluorescence intensity of the apical and basolateral medium was recorded at λex 570 nm and λem 610 nm, after which the cells were fixed and analyzed by fluorescence microscopy to analyse the uptake of mCherry or mCherry-Bri2 BRICHOS into cells.
FITC fluorescence was measured at λex 492 nm and λem 518 nm. Insulin permeability was determined by western blot and an anti-Insulin monoclonal primary antibody (Sigma, St. Louis, Mo.) at 1:1000 dilution. […]

| Molecule | percent of the total amount administered detected in the brain [1] [%] | toxicity / cell mitochondrial activity, result in words [2] | toxicity / cell mitochondrial activity, result in words [3] | cell uptake, result in words [4] | cell uptake, result in words [5] | hCMEC/D3 monolayer permeability, result in words [6] |
| --- | --- | --- | --- | --- | --- | --- |
| B1 | 1 | – | – | – | – | – |
| B2 | – | no toxicity | no toxicity | taken up | linear uptake | – |
| B3 | – | – | – | – | – | only the monomers show permeability |
| B4 | – | slight decrease in the cell mitochondrial activity | slight decrease in the cell mitochondrial activity | – | – | – |
| B5 | – | slight decrease in the cell mitochondrial activity | slight decrease in the cell mitochondrial activity | seem not to be taken up | detected in the cell lysate to a lesser degree | – |
